B1: A93K: Bs GDH with A93K substitution (SEQ ID NO:3) (protein)
chain: MYPDLKGKVVAITGAASGLGKAMAIRFGKEQAKVVINYYSNKQDPNEVKEEVIKAGGEAVVVQGDVTKEEDVKNIVQTAIKEFGTLDIMINNKGLENPVPSHEMPLKDWDKVIGTNLTGAFLGSREAIKYFVENDIKGNVINMSSVHEVIPWPLFVHYAASKGGIKLMTETLALEYAPKGIRVNNIGPGAINTPINAEKFADPKQKADVESMIPMGYIGEPEEIAAVAAWLASKEASYVTGITLFADGGMTQYPSFQAGRG
modifications: A93K mutant GDH coding sequence
B2: S17Q-P194N (protein)
chain: MYPDLKGKVVAITGAAQGLGKAMAIRFGKEQAKVVINYYSNKQDPNEVKEEVIKAGGEAVVVQGDVTKEEDVKNIVQTAIKEFGTLDIMINNAGLENPVPSHEMPLKDWDKVIGTNLTGAFLGSREAIKYFVENDIKGNVINMSSVHEVIPWPLFVHYAASKGGIKLMTETLALEYAPKGIRVNNIGPGAINTNINAEKFADPKQKADVESMIPMGYIGEPEEIAAVAAWLASKEASYVTGITLFADGGMTQYPSFQAGRG
B3: Y39Q: Bs GDH with Y39Q substitution (SEQ ID NO:4) (protein)
chain: MYPDLKGKVVAITGAASGLGKAMAIRFGKEQAKVVINYQSNKQDPNEVKEEVIKAGGEAVVVQGDVTKEEDVKNIVQTAIKEFGTLDIMINNAGLENPVPSHEMPLKDWDKVIGTNLTGAFLGSREAIKYFVENDIKGNVINMSSVHEVIPWPLFVHYAASKGGIKLMTETLALEYAPKGIRVNNIGPGAINTPINAEKFADPKQKADVESMIPMGYIGEPEEIAAVAAWLASKEASYVTGITLFADGGMTQYPSFQAGRG
modifications: Y39Q mutant GDH coding sequence
B4: L19H-I191S (protein)
chain: MYPDLKGKVVAITGAASGHGKAMAIRFGKEQAKVVINYYSNKQDPNEVKEEVIKAGGEAVVVQGDVTKEEDVKNIVQTAIKEFGTLDIMINNAGLENPVPSHEMPLKDWDKVIGTNLTGAFLGSREAIKYFVENDIKGNVINMSSVHEVIPWPLFVHYAASKGGIKLMTETLALEYAPKGIRVNNIGPGASNTPINAEKFADPKQKADVESMIPMGYIGEPEEIAAVAAWLASKEASYVTGITLFADGGMTQYPSFQAGRG
B5: G94S (protein)
chain: MYPDLKGKVVAITGAASGLGKAMAIRFGKEQAKVVINYYSNKQDPNEVKEEVIKAGGEAVVVQGDVTKEEDVKNIVQTAIKEFGTLDIMINNASLENPVPSHEMPLKDWDKVIGTNLTGAFLGSREAIKYFVENDIKGNVINMSSVHEVIPWPLFVHYAASKGGIKLMTETLALEYAPKGIRVNNIGPGAINTPINAEKFADPKQKADVESMIPMGYIGEPEEIAAVAAWLASKEASYVTGITLFADGGMTQYPSFQAGRG
B6: N92A (protein)
chain: MYPDLKGKVVAITGAASGLGKAMAIRFGKEQAKVVINYYSNKQDPNEVKEEVIKAGGEAVVVQGDVTKEEDVKNIVQTAIKEFGTLDIMINAAGLENPVPSHEMPLKDWDKVIGTNLTGAFLGSREAIKYFVENDIKGNVINMSSVHEVIPWPLFVHYAASKGGIKLMTETLALEYAPKGIRVNNIGPGAINTPINAEKFADPKQKADVESMIPMGYIGEPEEIAAVAAWLASKEASYVTGITLFADGGMTQYPSFQAGRG
B7: I195S (protein)
chain: MYPDLKGKVVAITGAASGLGKAMAIRFGKEQAKVVINYYSNKQDPNEVKEEVIKAGGEAVVVQGDVTKEEDVKNIVQTAIKEFGTLDIMINNAGLENPVPSHEMPLKDWDKVIGTNLTGAFLGSREAIKYFVENDIKGNVINMSSVHEVIPWPLFVHYAASKGGIKLMTETLALEYAPKGIRVNNIGPGAINTPSNAEKFADPKQKADVESMIPMGYIGEPEEIAAVAAWLASKEASYVTGITLFADGGMTQYPSFQAGRG
B8: M143S (protein)
chain: MYPDLKGKVVAITGAASGLGKAMAIRFGKEQAKVVINYYSNKQDPNEVKEEVIKAGGEAVVVQGDVTKEEDVKNIVQTAIKEFGTLDIMINNAGLENPVPSHEMPLKDWDKVIGTNLTGAFLGSREAIKYFVENDIKGNVINSSSVHEVIPWPLFVHYAASKGGIKLMTETLALEYAPKGIRVNNIGPGAINTPINAEKFADPKQKADVESMIPMGYIGEPEEIAAVAAWLASKEASYVTGITLFADGGMTQYPSFQAGRG
B9: N92V (protein)
chain: MYPDLKGKVVAITGAASGLGKAMAIRFGKEQAKVVINYYSNKQDPNEVKEEVIKAGGEAVVVQGDVTKEEDVKNIVQTAIKEFGTLDIMINVAGLENPVPSHEMPLKDWDKVIGTNLTGAFLGSREAIKYFVENDIKGNVINMSSVHEVIPWPLFVHYAASKGGIKLMTETLALEYAPKGIRVNNIGPGAINTPINAEKFADPKQKADVESMIPMGYIGEPEEIAAVAAWLASKEASYVTGITLFADGGMTQYPSFQAGRG
B10: I195T (protein)
chain: MYPDLKGKVVAITGAASGLGKAMAIRFGKEQAKVVINYYSNKQDPNEVKEEVIKAGGEAVVVQGDVTKEEDVKNIVQTAIKEFGTLDIMINNAGLENPVPSHEMPLKDWDKVIGTNLTGAFLGSREAIKYFVENDIKGNVINMSSVHEVIPWPLFVHYAASKGGIKLMTETLALEYAPKGIRVNNIGPGAINTPTNAEKFADPKQKADVESMIPMGYIGEPEEIAAVAAWLASKEASYVTGITLFADGGMTQYPSFQAGRG
B11: M143T (protein)
chain: MYPDLKGKVVAITGAASGLGKAMAIRFGKEQAKVVINYYSNKQDPNEVKEEVIKAGGEAVVVQGDVTKEEDVKNIVQTAIKEFGTLDIMINNAGLENPVPSHEMPLKDWDKVIGTNLTGAFLGSREAIKYFVENDIKGNVINTSSVHEVIPWPLFVHYAASKGGIKLMTETLALEYAPKGIRVNNIGPGAINTPINAEKFADPKQKADVESMIPMGYIGEPEEIAAVAAWLASKEASYVTGITLFADGGMTQYPSFQAGRG
B12: M143G-L19G-I224R (protein)
chain: MYPDLKGKVVAITGAASGGGKAMAIRFGKEQAKVVINYYSNKQDPNEVKEEVIKAGGEAVVVQGDVTKEEDVKNIVQTAIKEFGTLDIMINNAGLENPVPSHEMPLKDWDKVIGTNLTGAFLGSREAIKYFVENDIKGNVINGSSVHEVIPWPLFVHYAASKGGIKLMTETLALEYAPKGIRVNNIGPGAINTPINAEKFADPKQKADVESMIPMGYIGEPEERAAVAAWLASKEASYVTGITLFADGGMTQYPSFQAGRG
B13: A93K-Y39Q: Bs GDH variant A93K-Y39Q (protein)
chain: MYPDLKGKVVAITGAASGLGKAMAIRFGKEQAKVVINYQSNKQDPNEVKEEVIKAGGEAVVVQGDVTKEEDVKNIVQTAIKEFGTLDIMINNKGLENPVPSHEMPLKDWDKVIGTNLTGAFLGSREAIKYFVENDIKGNVINMSSVHEVIPWPLFVHYAASKGGIKLMTETLALEYAPKGIRVNNIGPGAINTPINAEKFADPKQKADVESMIPMGYIGEPEEIAAVAAWLASKEASYVTGITLFADGGMTQYPSFQAGRG

Columns and labels:
[1] = GDH enzymatic assay with NMN^+ as cofactor; assay type: biochemical; conditions: without I195R
Procedure: GDH enzymatic assays. The GDH activity was measured as described in Hilt et al. (Biochimica et biophysica acta 1076(2):298-304 (1991)). The reactions were started by adding the purified protein to the assay mixture containing 35 mM Tris-HCl buffer (pH 8.0), 3 mM NAD^+, NADP^+ or NMN^+ and 140 mM glucose. The absorbance variation at 340 nm was detected by a spectrophotometer at 25° C.

[2] = Protein expression levels of GDH variants; set-up: species or system Escherichia coli; conditions: expressed in E. coli
Procedure: Proteins were purified as 6×His tag fusion at the N-terminus. E. coli BL21 (DE3) with plasmids were inoculated into LB medium with 200 mg L^−1 ampicillin. Cells were induced with 0.5 mM IPTG and expressed for 24 hours at 30° C. with shaking at 250 rpm. BM3 cytochrome P450 was extracted with the EMD Millipore™ BugBuste Plus Lysonase Kit and purified using the HisPur™ Ni-NTA Superflow Purification System according to the manufacturer's instructions. Other proteins were purified using His-Spin Protein Miniprep kit (Zymo Research Corporation, CA). The purified proteins were quantified by Bradford assay.

Molecule	impact of mutation on activity towards NMN^+ [1]	Expression level [2]
B1	lack of impact on activity	–
B2	–	117.63 μg protein/ml culture
B3	lack of impact on activity	–
B4	–	No expression (<1) μg protein/ml culture
B5	–	117.50 μg protein/ml culture
B6	–	81.16 μg protein/ml culture
B7	–	96.33 μg protein/ml culture
B8	–	40.60 μg protein/ml culture
B9	–	57.56 μg protein/ml culture
B10	–	105.51 μg protein/ml culture
B11	–	94.55 μg protein/ml culture
B12	–	No expression (<1) μg protein/ml culture
B13	lack of impact on activity	–
